The source of these data is the Immune Epitope Database (IEDB).

Experiment [1] has as its target HLA-A*02:01. Kind of experiment: IEDB peptide-MHC binding, purified MHC/direct/fluorescence; filed as Kd, often an IC50 or EC50 that approximates it; ≥ and ≤ were set here for values at or beyond the usual limits of such assays.
Experiment [2] deals with HLA-B*08:01. The description is as above.
Experiment [3] concerns the target HLA-A*31:01. The experiment is described as above.
A further experiment deals with HLA-A*69:01. Described as above.
The next experiment concerns the target HLA-B*15:01. The experiment is described as above.
The target of experiment [4] is HLA-A*03:01. Described as above.
The target of experiment [5] is HLA-A*01:01. The experiment is described as above.
In the next experiment the target is HLA-A*24:02. The description is as above.
A further experiment deals with HLA-B*58:01. Described as above.
A further experiment has as its target HLA-B*27:05. Described as above.
Experiment [6] has as its target HLA-B*07:02. The experiment is described as above.
The next experiment deals with HLA-B*08:02. The description is as above.
Experiment [7] concerns the target HLA-A*11:01. The experiment is described as above.
Experiment [8] deals with HLA-B*40:01. The experiment is described as above.
Another experiment has as its target HLA-B*46:01. Described as above. The conditions noted are these: source organism: Giardia lamblia ATCC 50803.
In experiment [9] the target is HLA-B*18:01. Described as above. The following applies: source organism: Giardia lamblia ATCC 50803.
Experiment [10] concerns the target HLA-B*44:02. The experiment is described as above. The conditions noted are these: source organism: Giardia lamblia ATCC 50803.
The next experiment addresses HLA-A*68:01. Kind of experiment: IEDB peptide-MHC binding, purified MHC/competitive/radioactivity; filed as Kd, often an IC50 or EC50 that approximates it; ≥ and ≤ were set here for values at or beyond the usual limits of such assays. The following applies: source organism: Hepacivirus hominis.
Experiment [11] addresses HLA-A*02:01. Described as above. The following applies: source organism: Hepacivirus hominis.
A further experiment concerns the target HLA-A*02:03. The description is as above. The conditions noted are these: source organism: Hepacivirus hominis.
The next experiment addresses HLA-B*44:03. Described as above. The following applies: source organism: Hepacivirus hominis.
The target in experiment [12] is HLA-B*08:01. Described as above. The conditions noted are these: source organism: Hepacivirus hominis.
The target in the next experiment is HLA-B*51:01. The experiment is described as above. The conditions noted are these: source organism: Hepacivirus hominis.
In a further experiment the target is HLA-B*35:01. The experiment is described as above. The conditions noted are these: source organism: Hepacivirus hominis.
Another experiment concerns the target HLA-B*40:02. The description is as above. The following applies: source organism: Hepacivirus hominis.
Experiment [13] has as its target HLA-B*40:01. Described as above. The conditions noted are these: source organism: Hepacivirus hominis.
Experiment [14] has as its target HLA-B*18:01. Described as above. The conditions noted are these: source organism: Hepacivirus hominis.
The next experiment addresses HLA-A*02:06. The experiment is described as above. The following applies: source organism: Hepacivirus hominis.
Experiment [15] concerns the target HLA-A*31:01. The experiment is described as above. The conditions noted are these: source organism: Hepacivirus hominis.
The target in another experiment is HLA-A*33:01. The experiment is described as above. The conditions noted are these: source organism: Hepacivirus hominis.
Another experiment deals with HLA-A*02:02. Described as above. The following applies: source organism: Hepacivirus hominis.
The target in experiment [16] is HLA-B*44:02. Described as above. The following applies: source organism: Hepacivirus hominis.
The target of experiment [17] is HLA-A*03:01. The experiment is described as above. The conditions noted are these: source organism: Hepacivirus hominis.
Experiment [18] has as its target HLA-A*01:01. The description is as above. The following applies: source organism: Hepacivirus hominis.
The target of another experiment is HLA-B*53:01. The description is as above. The conditions noted are these: source organism: Hepacivirus hominis.
A further experiment has as its target HLA-A*68:02. The description is as above. The following applies: source organism: Hepacivirus hominis.
Experiment [19] deals with HLA-B*07:02. The experiment is described as above. The conditions noted are these: source organism: Hepacivirus hominis.
Another experiment concerns the target HLA-B*54:01. Described as above. The following applies: source organism: Hepacivirus hominis.
Experiment [20] deals with HLA-A*11:01. Described as above. The conditions noted are these: source organism: Hepacivirus hominis.
The target in the next experiment is HLA-A*26:01. Kind of experiment: IEDB peptide-MHC binding, purified MHC/direct/fluorescence; filed as Kd, often an IC50 or EC50 that approximates it; ≥ and ≤ were set here for values at or beyond the usual limits of such assays.
The mark [21] stands for this setting: source organism: Influenza A virus (A/camel/Mongolia/1982(H1N1)).
Where [22] appears, read: source organism: Influenza A virus (A/Puerto Rico/8/34/Mount Sinai(H1N1)).
The mark [23] stands for this setting: source organism: Giardia lamblia ATCC 50803.
[24] abbreviates: source organism: Influenza A virus (A/chicken/Hunan/fg/2004(H5N1)).
[25] abbreviates: source organism: Influenza B virus (B/Chiba/447/98).

Usually Kd stands for the equilibrium constant for the complex coming apart. In the case of EKFFPSSSY, the Kd with HLA-A*02:01 [1] (setting [21]) is at least 20 µM; with HLA-B*08:01 [2] (setting [21]), at least 20 µM; in the experiment with HLA-A*31:01 [3] (setting [21]) it was at least 20 µM; in the experiment with HLA-A*69:01 (setting [21]), at least 20 µM; with HLA-B*15:01 (setting [22]) it was 1120 nM; in the experiment with HLA-A*03:01 [4] (setting [21]), at least 20000 nM. Further, the Kd with HLA-A*01:01 [5] (setting [21]), with HLA-A*24:02 (setting [21]), with HLA-B*58:01 (setting [21]), with HLA-B*27:05 (setting [21]), in the experiment with HLA-B*07:02 [6] (setting [21]) and with HLA-B*08:02 (source organism: Influenza A virus H3N2) was at least 20 µM throughout. This sequence also yielded a Kd with HLA-A*11:01 [7] (setting [21]) of at least 20 µM.
For the sequence IVKYKQYLK, the Kd in the experiment with HLA-A*02:01 [1] (setting [23]), with HLA-B*08:01 [2] (setting [23]), with HLA-B*40:01 [8] (setting [23]), with HLA-B*46:01, with HLA-B*18:01 [9] and with HLA-A*69:01 (setting [23]) was at least 20 µM in each case. Further, the Kd with HLA-B*15:01 (setting [23]) is at least 20000 nM; with HLA-B*44:02 [10] it was at least 20 µM; with HLA-A*03:01 [4] (setting [23]) it was 81.5 nM; with HLA-A*01:01 [5] (setting [23]), at least 20 µM; with HLA-A*24:02 (setting [23]), at least 20 µM; with HLA-B*58:01 (setting [23]), at least 20 µM. The Kd with HLA-B*27:05 (setting [23]), with HLA-B*07:02 [6] (setting [23]) and with HLA-B*08:02 (setting [23]) was at least 20 µM throughout.
As to RPALVFDITK, the Kd was 133 nM in the experiment with HLA-A*68:01; at least 37.4 µM with HLA-A*02:01 [11]; at least 70.4 µM with HLA-A*02:03; 15.6 µM with HLA-B*44:03; at least 49.8 µM with HLA-B*08:01 [12]; at least 69.6 µM in the experiment with HLA-B*51:01. Further, the dissociation constant Kd is at least 27.4 µM with HLA-B*35:01; at least 70.8 µM with HLA-B*40:02; at least 69.6 µM in the experiment with HLA-B*40:01 [13]; at least 70.5 µM with HLA-B*18:01 [14]; 12.3 µM in the experiment with HLA-A*02:06; at least 70 µM with HLA-A*31:01 [15]. Besides, the Kd was at least 70 µM in the experiment with HLA-A*33:01; at least 70 µM in the experiment with HLA-A*02:02; at least 70.2 µM with HLA-B*44:02 [16]; at least 29.7 µM with HLA-A*03:01 [17]; at least 51.3 µM with HLA-A*01:01 [18]; 18.9 µM in the experiment with HLA-B*53:01. Further, the Kd was at least 69.8 µM with HLA-A*68:02, 222 nM with HLA-B*07:02 [19], 11.2 µM in the experiment with HLA-B*54:01 and 796 nM with HLA-A*11:01 [20].
Turning to SVFHEHIFK, the equilibrium dissociation constant (Kd) with HLA-A*02:01 [1] (setting [23]) is at least 20 µM; with HLA-B*40:01 [8] (setting [23]), at least 20 µM; with HLA-A*31:01 [3] (setting [23]), 0.134 µM; with HLA-A*69:01 (setting [23]), at least 20 µM; with HLA-B*15:01 (setting [23]), at least 20000 nM; in the experiment with HLA-A*26:01 (setting [23]), at least 20000 nM. For the same sequence, the Kd with HLA-B*44:02 [10] was at least 20 µM; with HLA-A*03:01 [4] (setting [23]), 154 nM; in the experiment with HLA-A*01:01 [5] (setting [23]), at least 20 µM; with HLA-A*24:02 (setting [23]), at least 20 µM; in the experiment with HLA-B*58:01 (setting [23]), at least 20 µM; with HLA-B*27:05 (setting [23]), at least 20 µM. Further, the Kd is at least 20 µM with HLA-B*07:02 [6] (setting [23]) and 0.0092 µM with HLA-A*11:01 [7] (setting [23]).
For the sequence YSHGTGTGY, the dissociation constant (Kd) was at least 20 µM in the experiment with HLA-A*02:01 [1] (setting [24]); at least 20 µM with HLA-B*08:01 [2] (setting [24]); at least 20 µM in the experiment with HLA-B*40:01 [8] (setting [24]); at least 20 µM in the experiment with HLA-A*31:01 [3] (setting [24]); at least 20 µM with HLA-A*69:01 (setting [24]); 99 nM with HLA-B*15:01 (setting [22]). Also, the Kd with HLA-A*26:01 (setting [25]) was 20 nM; with HLA-A*03:01 [4] (setting [24]) it was at least 20000 nM; with HLA-A*24:02 (setting [24]) it was at least 20 µM; with HLA-B*58:01 (setting [24]), 0.905 µM; with HLA-B*27:05 (setting [24]), at least 20 µM; in the experiment with HLA-B*07:02 [6] (setting [24]), at least 20 µM. The Kd with HLA-B*08:02 (setting [25]) and in the experiment with HLA-A*11:01 [7] (setting [24]) was at least 20 µM in each case.
